In publication PMC6971430, “Manipulation of the dually thermoresponsive behavior of peptide‐based vesicles through modification of collagen‐like peptide domains” (Bioengineering & Translational Medicine, 2019):
Non-standard residues stand in square brackets, D forms with d. No end group written: not given here. *: point of attachment. Butanoyl(4-N3) = [N-]=[N+]=NCCCC(=O)*; Hyp = O=C(O)[C@@H]1C[C@@H](O)CN1; Pra = C#CC[C@H](N)C(=O)O

What was measured:
[1] = target: the molecule itself; test: circular dichroism spectroscopy; free CLP peptides, 0.35 mM in HPLC grade water (pH 6.5 at 4°C), 0.2 cm cuvette; wavelength scans at 4 and 80°C and melting scans; monomers to triple helix
[2] = target: the molecule itself; test: circular dichroism spectroscopy; ELP-CLP conjugates, wavelength scans at 0.1 mM and melting scans at 0.35 mM in HPLC grade water (pH 6.5 at 4°C), 0.2 cm cuvette; monomers to triple helix

B1: N3-(GPO)3GFOGER(GPO)3GG (peptide)
peptide: {Butanoyl(4-N3)}-GP[Hyp]GP[Hyp]GP[Hyp]GF[Hyp]GERGP[Hyp]GP[Hyp]GP[Hyp]GG
notes: collagen-like peptide, printed in short form as N3-(GPO)3GFOGER(GPO)3GG and written out here; Forms a homotrimeric triple helix; details are in Supporting Information Section 1.1; also called CLP; source: synthetic peptide (Fmoc solid phase synthesis), purified by RP-HPLC
[1]
  stoichiometry N: 3

B2: (VPGFG)6-(GPO)3GFOGER(GPO)3GG (peptide)
chain: H-VPGFGVPGFGVPGFGVPGFGVPGFGVPGFG[Pra]GP[Hyp]GP[Hyp]GP[Hyp]GF[Hyp]GERGP[Hyp]GP[Hyp]GP[Hyp]GG
modifications: triazole (positions not given here); not fully specified (residue 31, bridges); also: no peptide bond between residues 31 and 32, the two parts are joined by azide-alkyne cycloaddition
notes: elastin-like peptide NH2-(VPGFG)6G', written out here; the last G stands for G' (propargylglycine); collagen-like peptide (GPO)3GFOGER(GPO)3GG as in m2; the printed O (hydroxyproline) is written as P; Two synthetic peptides joined through a triazole, written as one chain; Reaction details are in Supporting Information Section 1.2; also called F6-GFOGER; ELP-CLP conjugate; source: synthetic …
[2]
  stoichiometry N: 3
